Test results taken from patent publication US20200385482A1.

Assays:
[1] = target: human C-type lectin domain family 2 member (hCLEC2D) expressed on transfected 300.19 cells (human) (UniProt Q9UHP7); experiment: FACS, hCLEC2D 300.19 cells, assay 2, Ab approx 10 ug/ml
[2] = target: human C-type lectin domain family 2 member (hCLEC2D) expressed on transfected 300.19 cells (human) (UniProt Q9UHP7); experiment: FACS, hCLEC2D 300.19 cells, assay 2, Ab 0.1 ug/ml
[3] = target: human C-type lectin domain family 2 member (hCLEC2D) expressed on transfected 300.19 cells (human) (UniProt Q9UHP7); experiment: FACS, hCLEC2D 300.19 cells, assay 2, Ab 1 ug/ml
[4] = target: human C-type lectin domain family 2 member (hCLEC2D) expressed on transfected 300.19 cells (human) (UniProt Q9UHP7); experiment: FACS, hCLEC2D 300.19 cells, assay 1, Ab 0.01 ug/ml
[5] = target: human C-type lectin domain family 2 member (hCLEC2D) expressed on transfected 300.19 cells (human) (UniProt Q9UHP7); experiment: FACS, hCLEC2D 300.19 cells, assay 1, Ab 1 ug/ml
[6] = target: human C-type lectin domain family 2 member (hCLEC2D) expressed on transfected 300.19 cells (human) (UniProt Q9UHP7); experiment: FACS, hCLEC2D 300.19 cells, assay 1, Ab 0.1 ug/ml
[7] = target: human C-type lectin domain family 2 member (hCLEC2D) expressed on transfected 300.19 cells (human) (UniProt Q9UHP7); experiment: FACS, hCLEC2D 300.19 cells, assay 2, Ab 0.01 ug/ml
[8] = target: human C-type lectin domain family 2 member (hCLEC2D) expressed on transfected 300.19 cells (human) (UniProt Q9UHP7); experiment: FACS, hCLEC2D 300.19 cells, assay 1, Ab approx 10 ug/ml

Chain of human C-type lectin domain family 2 member (hCLEC2D) expressed on transfected 300.19 cells (human) (Q9UHP7 whole entry, the tested form may be a part): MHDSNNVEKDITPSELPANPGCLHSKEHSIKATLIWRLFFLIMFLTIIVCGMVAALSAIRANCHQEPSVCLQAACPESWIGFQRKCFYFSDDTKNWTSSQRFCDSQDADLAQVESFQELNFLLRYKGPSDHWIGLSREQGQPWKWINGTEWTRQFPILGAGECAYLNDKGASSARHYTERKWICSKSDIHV

Cells PE-A Mean [1]: 1540 MFI
Cells PE-A Mean [2]: 175 MFI
Cells PE-A Mean [3]: 351 MFI
Cells PE-A Mean [4]: 146 MFI
Cells PE-A Mean [5]: 351 MFI
Cells PE-A Mean [6]: 175 MFI
Cells PE-A Mean [7]: 146 MFI
Cells PE-A Mean [8]: 1540 MFI
Substance: control hIgG (antibody)
